{"source": "paper PMC4462073", "about": "“Insights into the evolution of enzyme substrate promiscuity after the discovery of (βα)8 isomerase evolutionary intermediates from a diverse metagenome” (BMC Evolutionary Biology, 2015)", "proteins": {"B1": {"name": "HisA_Afer (Acidimicrobium ferrooxidans DSM 10331) (protein)", "chain": "MELVVAVDLLDGEAVRLRQGRFDAPRRFGDPRRYVEGALDAGARWFHVVDLDRARTPGDRRNADMVGDLIALVREAGGSVEVGGGVRTARDIAELLETGASRVVLGTALVEETLDELDPEHLVAALDYRRGDEGALEVVVSAWERSGGRRLLEASARLFARGVRTQLLTDVGRDGMASGPDLGTYQGLCEVVPVEVIASGGVASADDLAKLAAIRGARGAVWGAVVGTALLDGSLGFDEALSACRA", "notes": "codon-optimised synthetic gene in pET22b (NdeI/HindIII), expressed in E. coli, purified"}}, "substrate": "NC(=O)c1ncn([C@@H]2O[C@H](COP(=O)(O)O)[C@@H](O)[C@H]2O)c1N=CN[C@@H]1O[C@H](COP(=O)(O)O)[C@@H](O)[C@H]1O", "experiment": "purified protein", "assay_type": "biochemical, Acidimicrobium ferrooxidans"}
{"protein": "B1", "values": [{"measurement": "Km", "value": "1.1 ± 0.2", "unit": "µM"}, {"measurement": "kcat", "value": "0.05 ± 0.001", "unit": "s⁻¹"}, {"measurement": "kcat/Km", "value": 45000, "unit": "M⁻¹ s⁻¹"}]}
